System: PiggyBac transposase
Assay: cell_activity

ITR-EF1a-GFP-ITR cssDNA
activity (K562 day 21, donor alone ~2.37%): 39.3 % GFP+ cells
activity (primary human T cells day 14, donor alone ~0.16%): 7.54 % GFP+ cells
